System: expanded human T cells from three healthy donors
Assay: T cell adjuvant high throughput screen, total viable CD3+ cell count
Type: cell-based
Settings: 62.5 IU/ml-1000 IU/ml; 6 days
Protocol: Cells were expanded from PBMC derived from Ficoll gradient separation from three healthy donor's apheresis material. […] Cells were next seeded into gas permeable 100M culture vessels and expanded for 7-14 days to achieve a large bank of T cells, and cryopreserved. […] Half of wells were additionally supplemented with 50 ng/mL OKT3, a human anti-CD3 monoclonal antibody. In total, 15 test adjuvant agents were tested for their impact on cell viability in the presence and absence of anti-CD3 activation (see Table E3). Cells were cultured for 6 days total, including a 50% medium exchange on culture day 3, and monitored for total viable CD3+ cell count.
Total viable CD3+ cell count for cells grown in the absence and presence of OKT3 stimulation are shown in FIGS. 27A-C and FIGS. 28A-C, respectively. The results shown are for the following concentrations of adjuvant: 10 μg/mL for tested antibodies (Tavolixizumab, Oxelumab, Ipilimumab, Tocilizumab, Urelumab, Pembrolizumab, Varlilumab, anti-GITR MK-1248, anto-human FasL); 25 μM for Z-VAD-FMK pan-caspase inhibitor; 250 nM for HSP inhibitor NVP-HSP990; and 1000 IU/mL for cytokine (IL-7, IL-15 or IL-21).

B1: IL-7: recombinant cytokine tested as T cell adjuvant (protein, UniProt P13232 26-177, looked up)
Interleukin-7: DCDIEGKDGKQYESVLMVSIDQLLDSMKEIGSNCLNNEFNFFKRHICDANKEGMFLFRAARKLRQFLKMNSTGDFDLHLLKVSEGTTILLNCTGQVKGRKPAALGEAQPTKSLEENKSLKEQKKLNDLCFLKRLLQEIKTCWNKILMGTKEH
- dose response, cell number: cell number increased with increasing concentration

Source: US20220177841A1, “EX VIVO METHODS FOR PRODUCING A T CELL THERAPEUTIC AND RELATED COMPOSITIONS AND METHODS” (Myst Therapeutics LLC, priority 2019, published 2022)
